PMC9482650, “Quantitative fragmentomics allow affinity mapping of interactomes” (Nature Communications, 2022)

Legend:
Assay in all cases: holdup assay
Set-up in all cases: key: below the threshold = too weak to quantify, mostly under pKd 3.1 to 4
Conditions in all cases: plain residues with an end cap or a label only (N-terminal biotin on a linker: ttds)
MAGI1_4, Q96QZ7 = molecular target: MAGI1_4, Q96QZ7
PARD6B, Q9BYG5 = molecular target: T1, PARD6B, Q9BYG5
T1 sequence (Q9BYG5 152-260, limits assumed, looked up): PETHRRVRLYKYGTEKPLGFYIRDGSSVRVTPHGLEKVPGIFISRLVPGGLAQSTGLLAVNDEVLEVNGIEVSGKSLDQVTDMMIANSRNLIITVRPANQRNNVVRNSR

NHERF3_2, Q5T2W1 = molecular target: T2, NHERF3_2, Q5T2W1
T2 sequence (Q5T2W1 129-225, limits assumed, looked up): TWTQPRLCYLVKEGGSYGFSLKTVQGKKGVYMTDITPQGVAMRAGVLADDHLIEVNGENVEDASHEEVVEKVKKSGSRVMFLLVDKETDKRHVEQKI

GIPC3, Q8TF64 = molecular target: GIPC3, Q8TF64
Sequence of GIPC3, Q8TF64 (Q8TF64 107-202): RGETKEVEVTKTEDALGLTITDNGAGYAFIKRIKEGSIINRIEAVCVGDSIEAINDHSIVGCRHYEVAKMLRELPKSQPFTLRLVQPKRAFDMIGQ

DLG5_2, Q8TDM6 = molecular target: DLG5_2, Q8TDM6
Sequence of DLG5_2, Q8TDM6 (Q8TDM6 714-800): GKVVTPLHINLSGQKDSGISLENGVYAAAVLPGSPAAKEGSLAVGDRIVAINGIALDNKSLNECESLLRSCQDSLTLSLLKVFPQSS

DVL1, O14640 = molecular target: T3, DVL1, O14640
T3 sequence (O14640 246-333, limits assumed, looked up): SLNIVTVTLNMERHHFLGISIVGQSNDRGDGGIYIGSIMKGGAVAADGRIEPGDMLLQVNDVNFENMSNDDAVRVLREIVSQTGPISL

PDZD2_3, O15018 = molecular target: T4, PDZD2_3, O15018
T4 sequence (O15018 581-682, limits assumed, looked up): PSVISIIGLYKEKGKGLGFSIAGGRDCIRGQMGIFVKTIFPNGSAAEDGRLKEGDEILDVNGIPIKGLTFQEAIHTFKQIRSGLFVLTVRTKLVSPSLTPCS

RGS12, O14924 = molecular target: T5, RGS12, O14924
T5 sequence (O14924 17-108, limits assumed, looked up): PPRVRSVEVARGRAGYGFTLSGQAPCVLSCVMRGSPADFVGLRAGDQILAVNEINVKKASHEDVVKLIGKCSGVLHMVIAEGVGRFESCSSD

GRIP1_1, Q9Y3R0 = molecular target: T6, GRIP1_1, Q9Y3R0
T6 sequence (Q9Y3R0 48-146, limits assumed, looked up): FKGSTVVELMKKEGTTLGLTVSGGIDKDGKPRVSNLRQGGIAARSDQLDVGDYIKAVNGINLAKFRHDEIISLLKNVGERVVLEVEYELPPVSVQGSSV

PTPN13_4, Q12923 = molecular target: T7, PTPN13_4, Q12923
T7 sequence (Q12923 1783-1878, limits assumed, looked up): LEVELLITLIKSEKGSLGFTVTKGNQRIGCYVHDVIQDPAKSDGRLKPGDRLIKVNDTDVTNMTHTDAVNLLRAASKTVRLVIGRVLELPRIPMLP

SHROOM4, Q9ULL8 = molecular target: T8, SHROOM4, Q9ULL8
T8 sequence (Q9ULL8 5-102, limits assumed, looked up): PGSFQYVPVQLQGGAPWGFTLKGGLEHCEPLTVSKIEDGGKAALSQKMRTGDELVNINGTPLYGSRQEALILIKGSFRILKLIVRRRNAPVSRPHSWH

PDZD2_4, O15018 = molecular target: T9, PDZD2_4, O15018
T9 sequence (O15018 723-823, limits assumed, looked up): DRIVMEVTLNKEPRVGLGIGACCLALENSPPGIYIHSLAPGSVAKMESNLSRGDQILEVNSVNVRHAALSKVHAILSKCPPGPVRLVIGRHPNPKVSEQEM

USH1C_2, Q9Y6N9 = molecular target: T10, USH1C_2, Q9Y6N9
T10 sequence (Q9Y6N9 206-303, limits assumed, looked up): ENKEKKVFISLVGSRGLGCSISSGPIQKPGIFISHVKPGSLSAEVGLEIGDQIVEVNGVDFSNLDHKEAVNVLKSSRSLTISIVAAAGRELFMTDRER

MAGI3_5, Q5TCQ9 = molecular target: MAGI3_5, Q5TCQ9
Sequence of MAGI3_5, Q5TCQ9 (Q5TCQ9 847-941): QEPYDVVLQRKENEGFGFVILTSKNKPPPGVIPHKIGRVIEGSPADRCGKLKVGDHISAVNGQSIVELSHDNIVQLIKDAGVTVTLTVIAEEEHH

MAGI3_4, Q5TCQ9 = molecular target: MAGI3_4, Q5TCQ9
Sequence of MAGI3_4, Q5TCQ9 (Q5TCQ9 716-815): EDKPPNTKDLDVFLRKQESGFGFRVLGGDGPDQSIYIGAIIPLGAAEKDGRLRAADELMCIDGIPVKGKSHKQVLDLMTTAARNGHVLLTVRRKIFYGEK

MAGI3_6, Q5TCQ9 = molecular target: MAGI3_6, Q5TCQ9
Sequence of MAGI3_6, Q5TCQ9 (Q5TCQ9 1014-1103): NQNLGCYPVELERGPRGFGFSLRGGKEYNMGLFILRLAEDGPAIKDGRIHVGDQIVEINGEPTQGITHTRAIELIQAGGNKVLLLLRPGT

Inadl_7, Q8NI35 = molecular target: Inadl_7, Q8NI35
Sequence of Inadl_7, Q8NI35 (Q8NI35 1219-1332): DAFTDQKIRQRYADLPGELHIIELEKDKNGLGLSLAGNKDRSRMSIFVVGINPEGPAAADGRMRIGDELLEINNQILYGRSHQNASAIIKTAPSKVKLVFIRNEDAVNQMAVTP

MAGI1_5, Q96QZ7 = molecular target: MAGI1_5, Q96QZ7
Sequence of MAGI1_5, Q96QZ7 (Q96QZ7 986-1098): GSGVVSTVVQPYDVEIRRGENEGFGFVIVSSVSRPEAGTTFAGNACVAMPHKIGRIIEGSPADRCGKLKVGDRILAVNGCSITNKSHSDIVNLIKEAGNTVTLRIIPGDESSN

LNX2_4, Q8N448 = molecular target: T11, LNX2_4, Q8N448
T11 sequence (Q8N448 595-690, limits assumed, looked up): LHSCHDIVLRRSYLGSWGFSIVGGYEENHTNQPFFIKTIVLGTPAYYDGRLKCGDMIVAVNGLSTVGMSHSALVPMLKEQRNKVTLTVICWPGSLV

MAGI1_3, Q96QZ7 = molecular target: MAGI1_3, Q96QZ7
Sequence of MAGI1_3, Q96QZ7 (Q96QZ7 638-725): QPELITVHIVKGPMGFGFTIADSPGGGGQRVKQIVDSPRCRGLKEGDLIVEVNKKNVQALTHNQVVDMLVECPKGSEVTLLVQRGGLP

PDZD11, Q5EBL8 = molecular target: T12, PDZD11, Q5EBL8
T12 sequence (Q5EBL8 42-139, limits assumed, looked up): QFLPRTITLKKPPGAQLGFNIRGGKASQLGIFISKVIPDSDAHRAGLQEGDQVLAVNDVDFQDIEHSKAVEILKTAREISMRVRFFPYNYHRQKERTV

IL16_2, Q14005 = molecular target: IL16_2, Q14005
Sequence of IL16_2, Q14005 (Q14005 350-450): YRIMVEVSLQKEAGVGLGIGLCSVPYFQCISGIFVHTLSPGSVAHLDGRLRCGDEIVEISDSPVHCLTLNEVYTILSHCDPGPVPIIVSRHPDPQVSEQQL

SCRIB_4, Q14160 = molecular target: SCRIB_4, Q14160
Sequence of SCRIB_4, Q14160 (Q14160 1095-1204): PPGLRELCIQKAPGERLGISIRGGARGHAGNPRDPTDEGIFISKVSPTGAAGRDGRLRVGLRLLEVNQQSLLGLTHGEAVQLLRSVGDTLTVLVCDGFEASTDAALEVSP

PARD3B_2, Q8TEW8 = molecular target: PARD3B_2, Q8TEW8
Sequence of PARD3B_2, Q8TEW8 (Q8TEW8 376-471): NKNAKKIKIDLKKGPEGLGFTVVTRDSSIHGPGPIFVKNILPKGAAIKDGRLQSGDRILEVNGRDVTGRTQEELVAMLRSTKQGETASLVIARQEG

PDZD9, Q8IXQ8 = molecular target: PDZD9, Q8IXQ8
Sequence of PDZD9, Q8IXQ8 (Q8IXQ8 23-120): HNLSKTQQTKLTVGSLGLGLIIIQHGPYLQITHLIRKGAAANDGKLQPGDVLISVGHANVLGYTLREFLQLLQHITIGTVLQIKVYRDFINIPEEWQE

Measured: pKd

Sequence of MAGI1_4, Q96QZ7 (Q96QZ7 other isoform, or with tags, fused parts or gaps): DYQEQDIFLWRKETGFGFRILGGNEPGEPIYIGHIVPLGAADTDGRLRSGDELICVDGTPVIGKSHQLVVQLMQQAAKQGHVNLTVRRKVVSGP

RHTTSTETAV [HPV30-E6, P36809]
4.72: MAGI1_3, Q96QZ7
5.02: MAGI1_5, Q96QZ7
4.78: PDZD2_4, O15018
4.73: SHROOM4, Q9ULL8
4.59: GRIP1_1, Q9Y3R0 | SCRIB_4, Q14160
below the threshold: all other assays above

SSLQSLETSV [ATP2B4, P23634]
4.38: SCRIB_4, Q14160
4.34: DLG5_2, Q8TDM6
4.44: MAGI1_3, Q96QZ7
4.68: SHROOM4, Q9ULL8
4.66: MAGI1_5, Q96QZ7
below the threshold: all other assays above

QRQARSETLV [HPV59-E6, Q81964]
4.65: MAGI1_4, Q96QZ7
4.42: PTPN13_4, Q12923
5.41: MAGI1_5, Q96QZ7
5.25: MAGI1_3, Q96QZ7
4.61: LNX2_4, Q8N448
4.62: MAGI3_5, Q5TCQ9
below the threshold: all other assays above
